{"source": "the DeepSol protein solubility set"}
{"test": "soluble on expression in E. coli; label from the status in PepcDB or PDB records"}
{"sequence": "MQADPAIRRFAKKRNKRVDRMILDSNYMHTSIDRYFPNESKRRGRPDIIYLLLEMTQESILNHKNQLRTYVHTRNNQVIRISPITRMPKSYNRFIGLFEDLFEKRIITNNGKELLSMEESSLGDLINSIRRDRTILLHPKGEMRKPSEFISNANILIVIGGFSEGDFISDTSFINERYAIFDQELTIWSVANEMVANYERAVGLTLEHHHHHH", "soluble on expression in E. coli": "soluble"}
{"sequence": "MQAKPQIPKDKSKVAGYIEIPDADIKEPVYPGPATPEQLNRGVSFAEENESLDDQNISIAGHTFIDRPNYQFTNLKAAKKGSMVYFKVGNETRKYKMTSIRDVKPTDVGVLDEQKGKDKQLTLITCDDYNEKTGVWEKRKIFVATEVK", "soluble on expression in E. coli": "soluble"}
{"sequence": "MQASELTPKWYVAPVSIKDEAVVKNLKAKIQALGFNHEIVDVKVLKEREVHEEVYSLKSGKLPRSLKNTTFNKWFVLDDYRYLRVKISEKNLLGRYIYIKMIYSEDAWRIVRNFPGITGIVGSSGRGALPIPLDEKDANNLEQMLKGISINPSKRIMLTNTAIIEMDSDKFDEKFQYILKQKQAIQKPKEDEDSEIVDAEKLKEAFKKLQNSQEQDEWKEKATIIQSEQTKLDPSVLVPFLGKYEILDTDNKVEQLFEFSVGNLVEVHLTDTIHVQGQIKALYQGTVNKAVVEIELTSKTQLINLPLENLSFVEFE", "soluble on expression in E. coli": "soluble"}
{"sequence": "MQATIYDLDGNTDGEVDLPDVFETPVRSDLIGKAVRAAQANRKQDYGSDEYAGLRTPAESFGSGRGQAHVPKLDGRARRVPQAVKGRSAHPPKTEKDRSLDLNDKERQLAVRSALAATADADLVADRGHEFDRDEVPVVVSDDFEDLVKTQEVVSLLEALDVHADIDRADETKIKAGQGSARGRKYRRPASILFVTSDEPSTAARNLAGADVATASEVNTEDLAPGGAPGRLTVFTESALAEVAER", "soluble on expression in E. coli": "soluble"}
{"sequence": "MQCNVCEFGCEIDEYSRGRCRTYVCTGDTIIQDPDMGYLGAYPVSIETIPLLHYYPSGKFLQVFGTGCNFQCSGCVARLLASGKSLSSTTLTPSQVVEKALQQDCLGVVSTLNEPAANYYLFRDLAVQAKEKGLLVGCSTNCYFTEETLNKLGQLVDFMNVGIKGYSDRSYISCGVPSSAPVFRNISLLFDMGVHVETSVVYSRGNEADVIKVAEAVSDISPTIPVQVMRFIPFGDAPIELEPSVGEAESLCADLRKYVDYVYLFNSPGTELLNTYCPECGSLLAEREFYGPMGSRPVRPWITYSCDCGKTVPVKGTTAVERFNEEGFMGGYRISRAFGMVHGVLTCLGILDDSRLIDVWREISDSGTLMKVHHMIQQPYAYLDFVRLIAERANMPEKGEELISFIHTRLELVKSLAAENSGHKVYYCMGSPLFALNAGRMENNLVAFSGGLSINKQLQKEGKPGINVSPSFINENNPDTIFISGFLSRPLDEFYTLCRQYGIETDAVKQQRVYEVPPSWDFGNPRWILGLMYIADKLYPGNSGIDLEKEADEFYRQFYGMPYLEHHHHHH", "soluble on expression in E. coli": "not soluble"}
{"sequence": "MQDGESNFPLLLLPENAKKHVLRTMDVDFLLSLSFCSKRTKHIVQSLKLKFEHFKMDLLGKTKLMINFRSTTILLVFNALYGDKAWKDVFRTVVSTGPPNARYYNTNFFKSFGWERKELAVEDTIYHIFDILNTNVIDVFLDCNNRNMFFFEKLSQTFRERNVRRISLGSMQNPIFNSFSYLENSLRNQFLELEGLAYLRELYRTLQEEHKILIQNFNYLNPNLPSTGKMTLNELLLINSSHITLTFNEMALNEKSLNIFLKHWINGSNKKLDYMYLSGFTQLGETSVAIEAILKRIVHKEASHDRLFKKFYDPGSNGNIGDNSSSLKHGFDIISNDGTPATASIRISEGVIYFQMKVWDQ", "soluble on expression in E. coli": "not soluble"}
{"sequence": "MQDILFDFISTYISLTEDEKNALLSLDLFRSVPKGTILLKEGQKSQESYFVLKGCIRIYYIIDGEEKTTAFYTEMDALTPPCVIHNAPSEYFISCIEDSILTVSNLEMEAEINSKFPKFELMCRMLSEELLAKQQIDFDAFKTSSPEQRYLNVLQNRPDLIQRVPQHQLASFLGIKPQSLSRLRARIVDKKS", "soluble on expression in E. coli": "not soluble"}
{"sequence": "MQDIRDLTAVLRSKTPIVVIETYEEYRVVDMLKRIANVLYQPLFTWSITQGLTRVDKPMPAQKFNTEPGDILGQIKATTQQGIYVLCDFHPFVVEAPKNVRLLKEIALEYDALQHTLVLVSHAFEIPPEIKRYCAYFQLTLPSTSQLENLIYLEVDKVRTQGIPLNVDDKAVVKLAENLRGVTLDDARRLIHKAIVDDGAITHSDVDLINKAKFQLLDLNGILQFEYDTSDFSQIAGLHNLKKWLKQRAPAAHSPQGVSAAAQIDTPKGVLLLGVQGSGKSLAAKAVAGVWQRPLLRLDMGALYNKYIGETEKNLRNALELADMMSPCILWIDEIEKGLSGSNSDQGISTRILGTLLTWMAERKSEVFVVATANDIQALPPELMRKGRMDEIFFVDLPDETIRKAIFLIHCQRRGIDVSRLDLAQLSRHSQGFSGAEIEQAVIAAMYSARSLGRTLDQDLLLEELTKTRPLSIVMGDKINALRQWAAGRTVNAHELEHHHHHH", "soluble on expression in E. coli": "soluble"}
{"sequence": "MQDRCPHQDHRSIPTIMPDLEPDTVSALEAPEFAPAQFVRWFREVAPYVHAFRGKTFVVAFGGELVQAGALNVLVQDLSLLSALGIHLVLVHGSRPQVNEQLRLKGYTQQFGRGLAPTDPAALECAKEAAGEIRLDIEAAFSQGLPNTPMSHSHIRVLSGNFVTARPTGVVDGIDYKHTGQVRKIDVDALKFAIEQGSVVLLSPLGFSPTGDAFNLAMEDLATSVAVALRAEKLIFLSGEPGVLDGNGAVDTELARVDADALLARGELDEDTTYFLQHASLAVKRGVARAHLVPYALDGSVLLEIFTHDGVGTMVVEDTLDDLRAATLDDVGAILSLIEPLETDGTLVPRPRSAIERDVERFTVLEHDGVIYGCAALYPFPEDQMAEMACLIVHPEWQGSGEGEILLRHMESRARASGARRLFVLTTRTSHWFMKRGFVRGGVADLPRDKQNNYNRSRNSLVFIKKL", "soluble on expression in E. coli": "not soluble"}
{"sequence": "MQERDKEPLQERFFRPHFLQAPGDMVAHEGRLCRLDCKVSGLPPPELTWLLNGQPVLPDASHKMLVRGTGVHSLLIDPLTQRDAGTYTCVATNKTGQNSFSLELTVVAKEVKKAPVILEKLQNSGVPEGHPVRLEGRVIGMPPPVFYWKKDNETIPFTRERISMHQDTTGYVCLLIQPAKKSDAGWYTLSAKNEAGIVSCTARLDIYAQWHQQIPTPISIRPSGSRYGSLTSKGLDIFSAFSSVESTMLYSCTSRSVVESDEL", "soluble on expression in E. coli": "not soluble"}
{"sequence": "MQERHTEQDYRALLIADTPIIDVRAPIEFEHGAMPAAINLPLMNNDERAAVGTCYKQQGSDAALALGHKLVAGEIRQQRMDAWRAACLQNPQGILCCARGGQRSHIVQSWLHAAGIDYPLVEGGYKALRQTAIQATIELAQKPIVLIGGCTGSGKTLLVQQQPNGVDLEGLARHRGSAFGRTLQPQLSQASFENLLAAEMLKTDARQNLRLWVLEDESRMIGSNHLPECLRERMTQAAIAVVEDPFEIRLERLNEEYFLRMHHDFTHAYGDEQGWQEYCEYLHHGLSAIKRRLGLQRYNELAARLDAALTTQLTTGSTDGHLAWLVPLLEEYYDPMYRYQLEKKAEKVVFRGEWAEVAEWVKAR", "soluble on expression in E. coli": "soluble"}
{"sequence": "MQEVHKWHNDLTGKKLVENLKKNLFDAYYFEDGSEVSKYIMNYVGTGTKIGFGGSVTVQSLNIAEQAMEKGAVILDHNDASLTQEEKMDIMRQQLTSDIFISSTNAITASGELVNIDGVGNRVSAIVFGPKKVIIVVGLNKLCKDVETAFERIKMQAAPKNMKRLGFLNPCIKTGYCVNCDAETRACRIYSVIKRRPMLTDMTVLVVGKSLGFLEHHHHHH", "soluble on expression in E. coli": "soluble"}
{"sequence": "MQFEKMITEGSNTASAEIDRVSTLEMCRIINDEDKTVPLAVERVLPDIAAAIDVIHAQVSGGGRLIYLGAGTSGRLGILDASECPPTYGVKPGLVVGLIAGGEYAIQHAVEGAEDSREGGVNDLKNINLTAQDVVVGIAASGRTPYVIAGLEYARQLGCRTVGISCNPGSAVSTTAEFAITPIVGAEVVTGSSRMKAGTAQKLVLNMLSTGLMIKSGKVFGNLMVDVVATNEKLHVRQVNIVKNATGCSAEQAEAALIACERNCKTAIVMVLKNLDAAEAKKRLDQHGGFIRQVLDKELEHHHHHH", "soluble on expression in E. coli": "soluble"}
{"sequence": "MQFHIDDMTCGGCASTVKKTILTLDANATVRTDPATRLVDVETSLSAEQIAAALQKAGFPPRER", "soluble on expression in E. coli": "not soluble"}
